Assay results published in patent US20260242735A1.

What was measured:
Assay in all cases: alanine scan, flow cytometry
human CD33 G263A (human) = human CD33 G263A (human) (UniProt P20138)
human CD33 F243A (human) = human CD33 F243A (human) (UniProt P20138)
human CD33 V234A (human) = human CD33 V234A (human) (UniProt P20138)
human CD33 T200A (human) = human CD33 T200A (human) (UniProt P20138)
human CD33 N209A (human) = human CD33 N209A (human) (UniProt P20138)
human CD33 V214A (human) = human CD33 V214A (human) (UniProt P20138)
human CD33 I198A (human) = human CD33 I198A (human) (UniProt P20138)
human CD33 F216A (human) = human CD33 F216A (human) (UniProt P20138)
human CD33 L197A (human) = human CD33 L197A (human) (UniProt P20138)
human CD33 G220A (human) = human CD33 G220A (human) (UniProt P20138)
human CD33 Q204A (human) = human CD33 Q204A (human) (UniProt P20138)
human CD33 T223A (human) = human CD33 T223A (human) (UniProt P20138)
human CD33 T226A (human) = human CD33 T226A (human) (UniProt P20138)
human CD33 G260A (human) = human CD33 G260A (human) (UniProt P20138)
human CD33 Y233A (human) = human CD33 Y233A (human) (UniProt P20138)
human CD33 I199A (human) = human CD33 I199A (human) (UniProt P20138)
human CD33 I227A (human) = human CD33 I227A (human) (UniProt P20138)
human CD33 T222A (human) = human CD33 T222A (human) (UniProt P20138)
human CD33 P238A (human) = human CD33 P238A (human) (UniProt P20138)
human CD33 T211A (human) = human CD33 T211A (human) (UniProt P20138)
human CD33 G256A (human) = human CD33 G256A (human) (UniProt P20138)
human CD33 P235A (human) = human CD33 P235A (human) (UniProt P20138)
human CD33 E252A (human) = human CD33 E252A (human) (UniProt P20138)
human CD33 T268A (human) = human CD33 T268A (human) (UniProt P20138)
human CD33 A255S (human) = human CD33 A255S (human) (UniProt P20138)
human CD33 H206A (human) = human CD33 H206A (human) (UniProt P20138)
human CD33 T239A (human) = human CD33 T239A (human) (UniProt P20138)
human CD33 G266A (human) = human CD33 G266A (human) (UniProt P20138)
human CD33 V196A (human) = human CD33 V196A (human) (UniProt P20138)
human CD33 C212A (human) = human CD33 C212A (human) (UniProt P20138)
human CD33 I242A (human) = human CD33 I242A (human) (UniProt P20138)
human CD33 G207A (human) = human CD33 G207A (human) (UniProt P20138)
human CD33 K250A (human) = human CD33 K250A (human) (UniProt P20138)
human CD33 Q228A (human) = human CD33 Q228A (human) (UniProt P20138)
human CD33 A217S (human) = human CD33 A217S (human) (UniProt P20138)
human CD33 P203A (human) = human CD33 P203A (human) (UniProt P20138)
human CD33 G264A (human) = human CD33 G264A (human) (UniProt P20138)
human CD33 S248A (human) = human CD33 S248A (human) (UniProt P20138)
human CD33 V221A (human) = human CD33 V221A (human) (UniProt P20138)
human CD33 L210A (human) = human CD33 L210A (human) (UniProt P20138)
human CD33 D205A (human) = human CD33 D205A (human) (UniProt P20138)
human CD33 N237A (human) = human CD33 N237A (human) (UniProt P20138)
human CD33 I262A (human) = human CD33 I262A (human) (UniProt P20138)
human CD33 A261S (human) = human CD33 A261S (human) (UniProt P20138)
human CD33 L229A (human) = human CD33 L229A (human) (UniProt P20138)
human CD33 H259A (human) = human CD33 H259A (human) (UniProt P20138)
human CD33 Q236A (human) = human CD33 Q236A (human) (UniProt P20138)
human CD33 K215A (human) = human CD33 K215A (human) (UniProt P20138)
human CD33 R202A (human) = human CD33 R202A (human) (UniProt P20138)
human CD33 G247A (human) = human CD33 G247A (human) (UniProt P20138)
human CD33 A265S (human) = human CD33 A265S (human) (UniProt P20138)
human CD33 L270A (human) = human CD33 L270A (human) (UniProt P20138)
human CD33 A269S (human) = human CD33 A269S (human) (UniProt P20138)

Sequence of human CD33 Y233A (human) (P20138 18-364 Y233A limits assumed): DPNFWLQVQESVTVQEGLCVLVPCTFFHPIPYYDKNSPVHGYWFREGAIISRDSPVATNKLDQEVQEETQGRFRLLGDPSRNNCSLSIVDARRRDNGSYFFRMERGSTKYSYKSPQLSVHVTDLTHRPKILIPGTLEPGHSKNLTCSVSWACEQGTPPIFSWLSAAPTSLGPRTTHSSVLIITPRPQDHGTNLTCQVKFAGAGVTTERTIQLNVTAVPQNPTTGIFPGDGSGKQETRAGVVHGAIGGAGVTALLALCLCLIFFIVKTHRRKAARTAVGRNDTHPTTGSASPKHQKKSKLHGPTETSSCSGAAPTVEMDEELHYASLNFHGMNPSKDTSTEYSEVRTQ
Sequence of human CD33 Q236A (human) (P20138 18-364 Q236A limits assumed): as the sequence (P20138 18-364 Y233A limits assumed) above, with A216Y, Q219A counted along it
Sequence of human CD33 G263A (human) (P20138 18-364 G263A limits assumed): as the sequence (P20138 18-364 Y233A limits assumed) above, with A216Y, G246A counted along it
Sequence of human CD33 A217S (human) (P20138 18-364 A217S limits assumed): as the sequence (P20138 18-364 Y233A limits assumed) above, with A200S, A216Y counted along it
Sequence of human CD33 L270A (human) (P20138 18-364 L270A limits assumed): as the sequence (P20138 18-364 Y233A limits assumed) above, with A216Y, L253A counted along it
Sequence of human CD33 H206A (human) (P20138 18-364 H206A limits assumed): as the sequence (P20138 18-364 Y233A limits assumed) above, with H189A, A216Y counted along it
Sequence of human CD33 G266A (human) (P20138 18-364 G266A limits assumed): as the sequence (P20138 18-364 Y233A limits assumed) above, with A216Y, G249A counted along it
Sequence of human CD33 Q228A (human) (P20138 18-364 Q228A limits assumed): as the sequence (P20138 18-364 Y233A limits assumed) above, with Q211A, A216Y counted along it
Sequence of human CD33 I198A (human) (P20138 18-364 I198A limits assumed): as the sequence (P20138 18-364 Y233A limits assumed) above, with I181A, A216Y counted along it
Sequence of human CD33 S248A (human) (P20138 18-364 S248A limits assumed): as the sequence (P20138 18-364 Y233A limits assumed) above, with A216Y, S231A counted along it
Sequence of human CD33 I227A (human) (P20138 18-364 I227A limits assumed): as the sequence (P20138 18-364 Y233A limits assumed) above, with I210A, A216Y counted along it
Sequence of human CD33 G256A (human) (P20138 18-364 G256A limits assumed): as the sequence (P20138 18-364 Y233A limits assumed) above, with A216Y, G239A counted along it
Sequence of human CD33 P238A (human) (P20138 18-364 P238A limits assumed): as the sequence (P20138 18-364 Y233A limits assumed) above, with A216Y, P221A counted along it
Sequence of human CD33 N209A (human) (P20138 18-364 N209A limits assumed): as the sequence (P20138 18-364 Y233A limits assumed) above, with N192A, A216Y counted along it

## Refmab #7 (WM53) (antibody)
Human CD33 G263A (human)
  Mean % WT Binding: 104 % WT binding
Human CD33 F243A (human)
  Mean % WT Binding: 91.8 % WT binding
Human CD33 V234A (human)
  Mean % WT Binding: 98.6 % WT binding
Human CD33 T200A (human)
  Mean % WT Binding: 97.6 % WT binding
Human CD33 N209A (human)
  Mean % WT Binding: 128 % WT binding
Human CD33 V214A (human)
  Mean % WT Binding: 120 % WT binding
Human CD33 I198A (human)
  Mean % WT Binding: 111 % WT binding
Human CD33 F216A (human)
  Mean % WT Binding: 112 % WT binding
Human CD33 L197A (human)
  Mean % WT Binding: 115 % WT binding
Human CD33 G220A (human)
  Mean % WT Binding: 120 % WT binding
Human CD33 Q204A (human)
  Mean % WT Binding: 117 % WT binding
Human CD33 T223A (human)
  Mean % WT Binding: 110 % WT binding
Human CD33 T226A (human)
  Mean % WT Binding: 99.1 % WT binding
Human CD33 G260A (human)
  Mean % WT Binding: 87.2 % WT binding
Human CD33 Y233A (human)
  Mean % WT Binding: 109 % WT binding
Human CD33 I199A (human)
  Mean % WT Binding: 115 % WT binding
Human CD33 I227A (human)
  Mean % WT Binding: 101 % WT binding
Human CD33 T222A (human)
  Mean % WT Binding: 110 % WT binding
Human CD33 P238A (human)
  Mean % WT Binding: 129 % WT binding
Human CD33 T211A (human)
  Mean % WT Binding: 98.1 % WT binding
Human CD33 G256A (human)
  Mean % WT Binding: 106 % WT binding
Human CD33 P235A (human)
  Mean % WT Binding: 112 % WT binding
Human CD33 E252A (human)
  Mean % WT Binding: 120 % WT binding
Human CD33 T268A (human)
  Mean % WT Binding: 148 % WT binding
Human CD33 A255S (human)
  Mean % WT Binding: 121 % WT binding
Human CD33 H206A (human)
  Mean % WT Binding: 108 % WT binding
Human CD33 T239A (human)
  Mean % WT Binding: 112 % WT binding
Human CD33 G266A (human)
  Mean % WT Binding: 110 % WT binding
Human CD33 V196A (human)
  Mean % WT Binding: 117 % WT binding
Human CD33 C212A (human)
  Mean % WT Binding: 17.8 % WT binding
Human CD33 I242A (human)
  Mean % WT Binding: 105 % WT binding
Human CD33 G207A (human)
  Mean % WT Binding: 104 % WT binding
Human CD33 K250A (human)
  Mean % WT Binding: 118 % WT binding
Human CD33 Q228A (human)
  Mean % WT Binding: 115 % WT binding
Human CD33 A217S (human)
  Mean % WT Binding: 114 % WT binding
Human CD33 P203A (human)
  Mean % WT Binding: 113 % WT binding
Human CD33 G264A (human)
  Mean % WT Binding: 82.8 % WT binding
Human CD33 S248A (human)
  Mean % WT Binding: 113 % WT binding
Human CD33 V221A (human)
  Mean % WT Binding: 99.7 % WT binding
Human CD33 L210A (human)
  Mean % WT Binding: 98.6 % WT binding
Human CD33 D205A (human)
  Mean % WT Binding: 0.8 % WT binding
Human CD33 N237A (human)
  Mean % WT Binding: 116 % WT binding
Human CD33 I262A (human)
  Mean % WT Binding: 119 % WT binding
Human CD33 A261S (human)
  Mean % WT Binding: 102 % WT binding
Human CD33 L229A (human)
  Mean % WT Binding: 114 % WT binding
Human CD33 H259A (human)
  Mean % WT Binding: 119 % WT binding
Human CD33 Q236A (human)
  Mean % WT Binding: 94.3 % WT binding
Human CD33 K215A (human)
  Mean % WT Binding: 145 % WT binding
Human CD33 R202A (human)
  Mean % WT Binding: 104 % WT binding
Human CD33 G247A (human)
  Mean % WT Binding: 123 % WT binding
Human CD33 A265S (human)
  Mean % WT Binding: 110 % WT binding
Human CD33 L270A (human)
  Mean % WT Binding: 99.8 % WT binding
Human CD33 A269S (human)
  Mean % WT Binding: 118 % WT binding
